Legend:
Experiment in all cases: cryo-EM structure
Cdc45 = biological target: T1, Cdc45 (S. cerevisiae, UniProt Q08032 1-650)
T1 sequence: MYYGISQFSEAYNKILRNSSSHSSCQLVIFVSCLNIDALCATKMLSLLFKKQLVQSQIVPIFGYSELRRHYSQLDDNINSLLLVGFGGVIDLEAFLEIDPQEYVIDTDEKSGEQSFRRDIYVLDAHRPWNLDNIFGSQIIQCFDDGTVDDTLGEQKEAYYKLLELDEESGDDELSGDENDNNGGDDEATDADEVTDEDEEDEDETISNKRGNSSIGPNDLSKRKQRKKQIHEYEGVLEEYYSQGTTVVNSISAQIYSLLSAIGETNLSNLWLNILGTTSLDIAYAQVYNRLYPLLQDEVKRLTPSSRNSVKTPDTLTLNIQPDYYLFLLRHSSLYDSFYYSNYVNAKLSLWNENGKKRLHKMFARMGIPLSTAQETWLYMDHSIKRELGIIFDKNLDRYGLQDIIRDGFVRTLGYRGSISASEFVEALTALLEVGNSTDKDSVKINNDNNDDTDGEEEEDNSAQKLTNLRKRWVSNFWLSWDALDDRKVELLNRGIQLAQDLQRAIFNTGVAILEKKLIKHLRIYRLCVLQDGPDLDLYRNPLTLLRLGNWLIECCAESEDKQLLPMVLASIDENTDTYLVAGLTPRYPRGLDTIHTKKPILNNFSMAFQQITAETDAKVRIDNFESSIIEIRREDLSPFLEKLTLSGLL

Mcm6 = Mcm6 (S. cerevisiae, UniProt P53091 1-1017)
Mcm6, sequence (P53091 whole entry): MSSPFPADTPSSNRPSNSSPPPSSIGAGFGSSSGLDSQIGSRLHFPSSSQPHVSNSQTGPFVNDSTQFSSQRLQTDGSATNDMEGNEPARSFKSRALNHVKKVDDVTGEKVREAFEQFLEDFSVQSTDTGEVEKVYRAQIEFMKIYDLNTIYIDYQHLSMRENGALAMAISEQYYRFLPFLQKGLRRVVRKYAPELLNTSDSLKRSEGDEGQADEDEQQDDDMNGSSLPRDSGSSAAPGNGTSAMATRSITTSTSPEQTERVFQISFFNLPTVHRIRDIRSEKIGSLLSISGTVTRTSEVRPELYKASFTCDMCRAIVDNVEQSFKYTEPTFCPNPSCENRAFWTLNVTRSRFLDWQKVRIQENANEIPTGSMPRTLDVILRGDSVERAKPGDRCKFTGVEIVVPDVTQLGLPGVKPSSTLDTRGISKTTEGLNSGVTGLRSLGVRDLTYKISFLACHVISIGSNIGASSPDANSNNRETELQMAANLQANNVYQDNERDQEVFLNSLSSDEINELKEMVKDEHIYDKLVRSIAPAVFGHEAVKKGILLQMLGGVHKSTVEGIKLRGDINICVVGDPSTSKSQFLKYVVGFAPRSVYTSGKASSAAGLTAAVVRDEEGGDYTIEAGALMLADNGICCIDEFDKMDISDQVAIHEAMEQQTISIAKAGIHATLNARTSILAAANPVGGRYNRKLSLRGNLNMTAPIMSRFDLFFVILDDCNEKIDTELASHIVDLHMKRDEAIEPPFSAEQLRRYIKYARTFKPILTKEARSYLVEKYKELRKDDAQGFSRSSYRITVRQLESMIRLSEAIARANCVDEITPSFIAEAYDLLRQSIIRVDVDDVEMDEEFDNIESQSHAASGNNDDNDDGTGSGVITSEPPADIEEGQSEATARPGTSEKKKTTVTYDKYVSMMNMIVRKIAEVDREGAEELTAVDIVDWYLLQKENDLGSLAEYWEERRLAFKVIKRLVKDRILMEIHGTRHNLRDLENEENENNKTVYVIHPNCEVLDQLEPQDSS

GINS = biological target: T2, GINS (S. cerevisiae, UniProt Q03406;Q12488;P40359;Q12146)
T2 sequence 1: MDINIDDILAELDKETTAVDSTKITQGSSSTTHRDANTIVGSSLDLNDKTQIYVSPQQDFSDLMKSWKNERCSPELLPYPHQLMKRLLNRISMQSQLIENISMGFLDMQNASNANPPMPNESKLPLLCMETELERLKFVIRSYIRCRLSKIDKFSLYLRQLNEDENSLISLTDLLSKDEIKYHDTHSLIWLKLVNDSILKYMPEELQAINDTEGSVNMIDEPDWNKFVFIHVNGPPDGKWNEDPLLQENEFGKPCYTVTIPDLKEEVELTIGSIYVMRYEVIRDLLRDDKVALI
T2 sequence 2: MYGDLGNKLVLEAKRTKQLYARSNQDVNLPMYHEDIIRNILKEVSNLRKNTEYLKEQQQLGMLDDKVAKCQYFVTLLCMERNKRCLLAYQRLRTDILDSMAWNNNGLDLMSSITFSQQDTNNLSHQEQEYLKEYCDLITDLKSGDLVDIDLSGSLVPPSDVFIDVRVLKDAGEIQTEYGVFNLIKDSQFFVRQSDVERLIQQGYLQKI
T2 sequence 3: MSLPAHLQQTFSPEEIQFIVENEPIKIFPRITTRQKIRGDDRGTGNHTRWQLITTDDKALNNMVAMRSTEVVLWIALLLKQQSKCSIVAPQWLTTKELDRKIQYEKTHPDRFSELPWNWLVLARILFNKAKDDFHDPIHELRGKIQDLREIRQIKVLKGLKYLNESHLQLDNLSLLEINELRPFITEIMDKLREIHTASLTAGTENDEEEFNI
T2 sequence 4: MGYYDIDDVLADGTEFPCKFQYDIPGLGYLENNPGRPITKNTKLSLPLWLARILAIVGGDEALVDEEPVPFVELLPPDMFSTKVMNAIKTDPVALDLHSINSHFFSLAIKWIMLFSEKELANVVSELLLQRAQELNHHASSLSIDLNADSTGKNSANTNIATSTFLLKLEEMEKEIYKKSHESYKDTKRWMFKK

Mcm4 = biological target: T3, Mcm4 (S. cerevisiae, UniProt P30665 1-933)
T3 sequence: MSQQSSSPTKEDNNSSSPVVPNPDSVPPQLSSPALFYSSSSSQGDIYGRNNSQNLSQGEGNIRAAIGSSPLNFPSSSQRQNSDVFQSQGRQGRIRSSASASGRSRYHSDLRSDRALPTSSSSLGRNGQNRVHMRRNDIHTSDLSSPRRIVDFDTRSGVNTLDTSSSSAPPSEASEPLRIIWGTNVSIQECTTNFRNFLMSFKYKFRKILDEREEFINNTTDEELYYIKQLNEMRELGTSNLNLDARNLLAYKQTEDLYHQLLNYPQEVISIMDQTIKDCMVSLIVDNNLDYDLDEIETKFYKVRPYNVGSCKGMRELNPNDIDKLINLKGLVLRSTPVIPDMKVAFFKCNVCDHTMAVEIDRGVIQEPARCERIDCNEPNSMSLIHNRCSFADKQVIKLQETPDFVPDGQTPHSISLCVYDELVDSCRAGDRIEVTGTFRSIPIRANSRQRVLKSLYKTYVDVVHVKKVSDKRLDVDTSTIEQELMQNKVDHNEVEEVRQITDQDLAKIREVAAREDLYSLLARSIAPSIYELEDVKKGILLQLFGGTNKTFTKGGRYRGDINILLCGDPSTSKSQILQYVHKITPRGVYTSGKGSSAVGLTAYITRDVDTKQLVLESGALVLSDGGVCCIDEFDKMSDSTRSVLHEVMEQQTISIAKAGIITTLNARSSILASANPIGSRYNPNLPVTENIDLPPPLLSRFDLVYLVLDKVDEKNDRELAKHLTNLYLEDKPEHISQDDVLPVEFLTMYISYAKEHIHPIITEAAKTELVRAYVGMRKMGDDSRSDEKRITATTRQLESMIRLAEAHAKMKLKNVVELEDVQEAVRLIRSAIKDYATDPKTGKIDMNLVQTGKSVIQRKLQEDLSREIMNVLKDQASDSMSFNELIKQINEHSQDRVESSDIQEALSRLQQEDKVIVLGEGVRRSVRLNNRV

Mcm3 = Mcm3 (S. cerevisiae, UniProt P24279 1-971)
Mcm3, sequence (P24279 whole entry): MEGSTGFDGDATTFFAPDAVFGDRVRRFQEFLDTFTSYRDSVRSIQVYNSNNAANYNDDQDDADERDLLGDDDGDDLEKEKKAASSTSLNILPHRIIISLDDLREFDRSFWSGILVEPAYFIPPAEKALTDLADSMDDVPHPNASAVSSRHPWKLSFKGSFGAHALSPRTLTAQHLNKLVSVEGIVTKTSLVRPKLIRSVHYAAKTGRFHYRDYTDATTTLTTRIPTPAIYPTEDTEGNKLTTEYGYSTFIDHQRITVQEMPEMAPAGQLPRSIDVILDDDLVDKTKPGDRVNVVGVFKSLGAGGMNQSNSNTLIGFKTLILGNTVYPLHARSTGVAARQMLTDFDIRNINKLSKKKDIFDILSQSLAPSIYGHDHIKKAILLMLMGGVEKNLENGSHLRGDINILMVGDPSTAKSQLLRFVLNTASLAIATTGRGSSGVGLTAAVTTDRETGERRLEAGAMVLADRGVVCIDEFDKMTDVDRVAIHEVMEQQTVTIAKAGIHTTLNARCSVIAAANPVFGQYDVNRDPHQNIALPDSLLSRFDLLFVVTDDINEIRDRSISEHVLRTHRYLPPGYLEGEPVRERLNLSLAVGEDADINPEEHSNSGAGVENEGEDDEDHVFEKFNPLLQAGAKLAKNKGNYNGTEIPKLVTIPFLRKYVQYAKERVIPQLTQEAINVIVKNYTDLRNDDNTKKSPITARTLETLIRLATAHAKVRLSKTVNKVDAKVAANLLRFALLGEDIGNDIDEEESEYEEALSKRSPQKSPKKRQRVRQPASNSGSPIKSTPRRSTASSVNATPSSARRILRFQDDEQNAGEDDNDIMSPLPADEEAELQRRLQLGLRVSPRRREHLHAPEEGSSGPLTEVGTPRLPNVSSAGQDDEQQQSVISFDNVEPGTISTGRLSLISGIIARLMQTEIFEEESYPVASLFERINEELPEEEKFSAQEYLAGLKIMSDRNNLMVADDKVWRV

B1: Psf2 (natural protein)
chain: T2 sequence 3
binding result (Cdc45): binds

B2: Mcm5 (natural protein)
chain: MSFDRPEIYSAPVLQGESPNDDDNTEIIKSFKNFILEFRLDSQFIYRDQLRNNILVKNYSLTVNMEHLIGYNEDIYKKLSDEPSDIIPLFETAITQVAKRISILSRAQSANNNDKDPENTSMDTDSLLLNSLPTFQLILNSNANQIPLRDLDSEHVSKIVRLSGIIISTSVLSSRATYLSIMCRNCRHTTSITINNFNSITGNTVSLPRSCLSTIESESSMANESNIGDESTKKNCGPDPYIIIHESSKFIDQQFLKLQEIPELVPVGEMPRNLTMTCDRYLTNKVIPGTRVTIVGIYSIYNSKNGAGSGRSGGGNGGSGVAIRTPYIKILGIQSDVETSSIWNSVTMFTEEEEEEFLQLSRNPKLYEILTNSIAPSIFGNEDIKKAIVCLLMGGSKKILPDGMRLRGDINVLLLGDPGTAKSQLLKFVEKVSPIAVYTSGKGSSAAGLTASVQRDPMTREFYLEGGAMVLADGGVVCIDEFDKMRDEDRVAIHEAMEQQTISIAKAGITTVLNSRTSVLAAANPIYGRYDDLKSPGDNIDFQTTILSRFDMIFIVKDDHNEERDISIANHVINIHTGNANAMQNQQEENGSEISIEKMKRYITYCRLKCAPRLSPQAAEKLSSNFVTIRKQLLINELESTERSSIPITIRQLEAIIRITESLAKLELSPIAQERHVDEAIRLFQASTMDAASQDPIGGLNQASGTSLSEIRRFEQELKRRLPIGWSTSYQTLRREFVDTHRFSQLALDKALYALEKHETIQLRHQGQNIYRSGV
binding result (Mcm6): binds | binding result (GINS): binds

B3: Mcm7 (natural protein)
chain: MSAALPSIQLPVDYNNLFNEITDFLVTFKQDTLSSDATRNENEDENLDAENIEQHLLEKGPKYMAMLQKVANRELNSVIIDLDDILQYQNEKFLQGTQADDLVSAIQQNANHFTELFCRAIDNNMPLPTKEIDYKDDVLDVILNQRRLRNERMLSDRTNEIRSENLMDTTMDPPSSMNDALREVVEDETELFPPNLTRRYFLYFKPLSQNCARRYRKKAISSKPLSVRQIKGDFLGQLITVRGIITRVSDVKPAVEVIAYTCDQCGYEVFQEVNSRTFTPLSECTSEECSQNQTKGQLFMSTRASKFSAFQECKIQELSQQVPVGHIPRSLNIHVNGTLVRSLSPGDIVDVTGIFLPAPYTGFKALKAGLLTETYLEAQFVRQHKKKFASFSLTSDVEERVMELITSGDVYNRLAKSIAPEIYGNLDVKKALLLLLVGGVDKRVGDGMKIRGDINVCLMGDPGVAKSQLLKAICKISPRGVYTTGKGSSGVGLTAAVMKDPVTDEMILEGGALVLADNGICCIDEFDKMDESDRTAIHEVMEQQTISISKAGINTTLNARTSILAAANPLYGRYNPRLSPLDNINLPAALLSRFDILFLMLDIPSRDDDEKLAEHVTYVHMHNKQPDLDFTPVEPSKMREYIAYAKTKRPVMSEAVNDYVVQAYIRLRQDSKREMDSKFSFGQATPRTLLGIIRLSQALAKLRLADMVDIDDVEEALRLVRVSKESLYQETNKSKEDESPTTKIFTIIKKMLQETGKNTLSYENIVKTVRLRGFTMLQLSNCIQEYSYLNVWHLINEGNTLKFVDDGTMDTDQEDSLVSTPKLAPQTTASANVSAQDSDIDLQDA
binding result (Mcm4): binds | binding result (Mcm3): binds

B4: Psf1 (natural protein)
chain: T2 sequence 2
binding result (Cdc45): binds

— article PMC4812828 (Nature structural & molecular biology, 2016)
